Test results published in PMC12049449, “EXO1 promotes the meiotic MLH1-MLH3 endonuclease through conserved interactions with MLH1, MSH4 and DNA” (Nature Communications, 2025).
One block for each molecule: values may come before it.

Tests used:
[1] = target: EXO1-FLAG, full length, as printed for Fig. 3h and Fig. 6d (UniProt Q9UQ84); assay: pull-down (anti-FLAG immobilised EXO1-FLAG, Western blot quantification); conditions: n = 3 independent experiments, parent: est. 1.0, read off a plot
[2] = target: T1, EXO1-FLAG, full length, for Fig. 3h and Fig. 6d, Q9UQ84; assay: as above; conditions: chain shown with the change; n = 3 independent experiments; p < 0.0001 vs WT; parent: est. 1.0; read off a plot
T1 chain: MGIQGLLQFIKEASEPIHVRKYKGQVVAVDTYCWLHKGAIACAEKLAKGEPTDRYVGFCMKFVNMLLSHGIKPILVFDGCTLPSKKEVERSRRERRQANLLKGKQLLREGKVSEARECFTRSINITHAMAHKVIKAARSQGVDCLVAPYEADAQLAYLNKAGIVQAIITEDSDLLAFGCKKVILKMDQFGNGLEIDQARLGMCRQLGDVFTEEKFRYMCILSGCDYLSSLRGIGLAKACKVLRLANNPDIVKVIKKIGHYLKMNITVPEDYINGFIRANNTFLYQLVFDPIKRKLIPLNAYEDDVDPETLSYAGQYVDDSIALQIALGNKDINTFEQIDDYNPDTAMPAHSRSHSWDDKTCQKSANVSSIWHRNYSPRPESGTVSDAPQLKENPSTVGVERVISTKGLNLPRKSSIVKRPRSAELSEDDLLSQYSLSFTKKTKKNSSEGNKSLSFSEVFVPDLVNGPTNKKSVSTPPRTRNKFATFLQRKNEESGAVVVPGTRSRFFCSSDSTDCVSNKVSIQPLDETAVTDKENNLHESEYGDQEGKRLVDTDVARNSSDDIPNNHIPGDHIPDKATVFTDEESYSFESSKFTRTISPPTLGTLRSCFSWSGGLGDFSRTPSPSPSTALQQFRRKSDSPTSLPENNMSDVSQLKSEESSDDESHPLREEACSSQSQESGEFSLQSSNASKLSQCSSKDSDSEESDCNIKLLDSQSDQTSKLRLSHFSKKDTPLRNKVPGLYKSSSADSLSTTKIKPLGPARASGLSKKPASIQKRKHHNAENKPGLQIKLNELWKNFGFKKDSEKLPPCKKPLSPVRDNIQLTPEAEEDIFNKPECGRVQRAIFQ

Human MutLγ (MLH1-MLH3) = target: T2, Human MutLγ (MLH1-MLH3) (human, UniProt P40692 1-756; Q9UHC1 1-1453); assay: pull-down; MutLγ (bait, 1 μg) held by anti-MLH1 antibody on protein G magnetic beads; EXO1-FLAG variants (prey, 1 μg) added; 25 mM Tris-HCl pH 7.5, 3 mM EDTA, 1 mM DTT, 20 μg/ml BSA, 50 mM NaCl, 4 °C, 1 h; washes with 100 mM NaCl, 0.05% Triton X-100; Western blot; conditions: both partners purified
T2 construct: MLH1, human, from pFB-FLAG-hMLH1co; MLH3, human, from pFB-His-MBP-hMLH3co; The methods say that the MBP tag was cleaved with PreScission protease; also called FLAG-MLH1 and MBP-MLH3; FLAG-MLH1-MBP-MLH3; source: Sf9, purified (amylose resin, M2 anti-FLAG resin); not shown: FLAG, N-terminal, kept; MBP, N-terminal, kept

Molecule: Human MutSγ (MSH4-MSH5) (from UniProt O15457;O43196) MSH4:F225E
ratio to parent ([1]; p = 0.22 vs WT): 0.66 arb. units

B2: Nuclease-deficient human EXO1 (D173A)-FLAG, full length (enzyme, UniProt Q9UQ84 1-846, looked up)
chain: MGIQGLLQFIKEASEPIHVRKYKGQVVAVDTYCWLHKGAIACAEKLAKGEPTDRYVGFCMKFVNMLLSHGIKPILVFDGCTLPSKKEVERSRRERRQANLLKGKQLLREGKVSEARECFTRSINITHAMAHKVIKAARSQGVDCLVAPYEADAQLAYLNKAGIVQAIITEDSALLAFGCKKVILKMDQFGNGLEIDQARLGMCRQLGDVFTEEKFRYMCILSGCDYLSSLRGIGLAKACKVLRLANNPDIVKVIKKIGHYLKMNITVPEDYINGFIRANNTFLYQLVFDPIKRKLIPLNAYEDDVDPETLSYAGQYVDDSIALQIALGNKDINTFEQIDDYNPDTAMPAHSRSHSWDDKTCQKSANVSSIWHRNYSPRPESGTVSDAPQLKENPSTVGVERVISTKGLNLPRKSSIVKRPRSAELSEDDLLSQYSLSFTKKTKKNSSEGNKSLSFSEVFVPDLVNGPTNKKSVSTPPRTRNKFATFLQRKNEESGAVVVPGTRSRFFCSSDSTDCVSNKVSIQPLDETAVTDKENNLHESEYGDQEGKRLVDTDVARNSSDDIPNNHIPGDHIPDKATVFTDEESYSFESSKFTRTISPPTLGTLRSCFSWSGGLGDFSRTPSPSPSTALQQFRRKSDSPTSLPENNMSDVSQLKSEESSDDESHPLREEACSSQSQESGEFSLQSSNASKLSQCSSKDSDSEESDCNIKLLDSQSDQTSKLRLSHFSKKDTPLRNKVPGLYKSSSADSLSTTKIKPLGPARASGLSKKPASIQKRKHHNAENKPGLQIKLNELWKNFGFKKDSEKLPPCKKPLSPVRDNIQLTPEAEEDIFNKPECGRVQRAIFQ
notes: EXO1, human, from pFB-MBP-PP-EXO1(D173A)-1xFLAG; last residue at position 846; also called nuclease-dead EXO1 (D173A); source: Sf9, purified (amylose resin, PreScission cleavage, FLAG M2 resin); not shown: MBP, N-terminal, cleaved; FLAG, C-terminal, kept
binding result (Human MutLγ (MLH1-MLH3)): binds

B3: EXO1 (D173A I403E)-FLAG (enzyme, human, UniProt Q9UQ84 1-846, looked up)
chain: MGIQGLLQFIKEASEPIHVRKYKGQVVAVDTYCWLHKGAIACAEKLAKGEPTDRYVGFCMKFVNMLLSHGIKPILVFDGCTLPSKKEVERSRRERRQANLLKGKQLLREGKVSEARECFTRSINITHAMAHKVIKAARSQGVDCLVAPYEADAQLAYLNKAGIVQAIITEDSALLAFGCKKVILKMDQFGNGLEIDQARLGMCRQLGDVFTEEKFRYMCILSGCDYLSSLRGIGLAKACKVLRLANNPDIVKVIKKIGHYLKMNITVPEDYINGFIRANNTFLYQLVFDPIKRKLIPLNAYEDDVDPETLSYAGQYVDDSIALQIALGNKDINTFEQIDDYNPDTAMPAHSRSHSWDDKTCQKSANVSSIWHRNYSPRPESGTVSDAPQLKENPSTVGVERVESTKGLNLPRKSSIVKRPRSAELSEDDLLSQYSLSFTKKTKKNSSEGNKSLSFSEVFVPDLVNGPTNKKSVSTPPRTRNKFATFLQRKNEESGAVVVPGTRSRFFCSSDSTDCVSNKVSIQPLDETAVTDKENNLHESEYGDQEGKRLVDTDVARNSSDDIPNNHIPGDHIPDKATVFTDEESYSFESSKFTRTISPPTLGTLRSCFSWSGGLGDFSRTPSPSPSTALQQFRRKSDSPTSLPENNMSDVSQLKSEESSDDESHPLREEACSSQSQESGEFSLQSSNASKLSQCSSKDSDSEESDCNIKLLDSQSDQTSKLRLSHFSKKDTPLRNKVPGLYKSSSADSLSTTKIKPLGPARASGLSKKPASIQKRKHHNAENKPGLQIKLNELWKNFGFKKDSEKLPPCKKPLSPVRDNIQLTPEAEEDIFNKPECGRVQRAIFQ
notes: EXO1, human, derivative of pFB-MBP-PP-EXO1(D173A)-1xFLAG; also called EXO1 (I403E); source: Sf9, purified (amylose resin, PreScission cleavage, FLAG M2 resin); not shown: MBP, N-terminal, cleaved; FLAG, C-terminal, kept
binding result (Human MutLγ (MLH1-MLH3)): binds

Continued, values first:

ratio to parent ([1]; p = 0.19 vs WT): 0.73 arb. units
Molecule: Human MutSγ (MSH4-MSH5) (from UniProt O15457;O43196) MSH4:F288E

ratio to parent ([1]; p = 0.005 vs WT): 0.2 arb. units
Molecule: Human MutSγ (MSH4-MSH5) (from UniProt O15457;O43196) MSH4:F225E; MSH4:F288E

ratio to parent [2]: 0.08 arb. units
B1: Human MutSγ (MSH4-MSH5), O15457;O43196 MSH4:T238E; MSH4:Y244D; MSH4:F288E (protein)
chain 1: MLRPEISSTSPSAPAVSPSSGETRSPQGPRYNFGLQETPQSRPSVQVVSASTCPGTSGAAGDRSSSSSSLPCPAPNSRPAQGSYFGNKRAYAENTVASNFTFGASSSSARDTNYPQTLKTPLSTGNPQRSGYKSWTPQVGYSASSSSAISAHSPSVIVAVVEGRGLARGEIGMASIDLKNPQIILSQFADNTTYAKVITKLKILSPLEIIMSNTACAVGNSTKLFTLITENFKNVNFETIQRKDFNETKGLEYIEQLCIAEFSTVLMEVQSKYYCLAAVAALLKYVEEIQNSVYAPKSLKICFQGSEQTAMIDSSSAQNLELLINNQDYRNNHTLFGVLNYTKTPGGSRRLRSNILEPLVDIETINMRLDCVQELLQDEELFFGLQSVISRFLDTEQLLSVLVQIPKQDTVNAAESKITNLIYLKHTLELVDPLKIAMKNCNTPLLRAYYGSLEDKRFGIILEKIKTVINDDARYMKGCLNMRTQKCYAVRSNINEFLDIARRTYTEIVDDIAGMISQLGEKYSLPLRTSFSSARGFFIQMTTDCIALPSDQLPSEFIKISKVKNSYSFTSADLIKMNERCQESLREIYHMTYMIVCKLLSEIYEHIHCLYKLSDTVSMLDMLLSFAHACTLSDYVRPEFTDTLAIKQGWHPILEKISAEKPIANNTYVTEGSNFLIITGPNMSGKSTYLKQIALCQIMAQIGSYVPAEYSSFRIAKQIFTRISTDDDIETNSSTFMKEMKEIAYILHNANDKSLILIDELGRGTNTEEGIGICYAVCEYLLSLKAFTLFATHFLELCHIDALYPNVENMHFEVQHVKNTSRNKEAILYTYKLSKGLTEEKNYGLKAAEVSSLPPSIVLDAKEITTQITRQILQNQRSTPEMERQRAVYHLATRLVQTARNSQLDPDSLRIYLSNLKKKYKEDFPRTEQVPEKTEE
chain 2: MASLGANPRRTPQGPRPGAASSGFPSPAPVPGPREAEEEEVEEEEELAEIHLCVLWNSGYLGIAYYDTSDSTIHFMPDAPDHESLKLLQRVLDEINPQSVVTSAKQDENMTRFLGKLASQEHREPKRPEIIFLPSVDFGLEISKQRLLSGNYSFIPDAMTATEKILFLSSIIPFDCLLTVRALGGLLKFLGRRRIGVELEDYNVSVPILGFKKFMLTHLVNIDQDTYSVLQIFKSESHPSVYKVASGLKEGLSLFGILNRCHCKWGEKLLRLWFTRPTHDLGELSSRLDVIQFFLLPQNLDMAQMLHRLLGHIKNVPLILKRMKLSHTKVSDWQVLYKTVYSALGLRDACRSLPQSIQLFRDIAQEFSDDLHHIASLIGKVVDFEGSLAENRFTVLPNIDPEIDEKKRRLMGLPSFLTEVARKELENLDSRIPSCSVIYIPLIGFLLSIPRLPSMVEASDFEINGLDFMFLSEEKLHYRSARTKELDALLGDLHCEIRDQETLLMYQLQCQVLARAAVLTRVLDLASRLDVLLALASAARDYGYSRPRYSPQVLGVRIQNGRHPLMELCARTFVPNSTECGGDKGRVKVITGPNSSGKSIYLKQVGLITFMALVGSFVPAEEAEIGAVDAIFTRIHSCESISLGLSTFMIDLNQVAKAVNNATAQSLVLIDEFGKGTNTVDGLALLAAVLRHWLARGPTCPHIFVATNFLSLVQLQLLPQGPLVQYLTMETCEDGNDLVFFYQVCEGVAKASHASHTAAQAGLPDKLVARGKEVSDLIRSGKPIKPVKDLLKKNQMENCQTLVDKFMKLDLEDPNLDLNVFMSQEVLPAATSIL

binding result (Human MutLγ (MLH1-MLH3)): binds
B4: EXO1 (D173A MIP)-FLAG (F506A and F507A in the MIP motif) (enzyme, human, UniProt Q9UQ84 1-846, looked up)
chain: MGIQGLLQFIKEASEPIHVRKYKGQVVAVDTYCWLHKGAIACAEKLAKGEPTDRYVGFCMKFVNMLLSHGIKPILVFDGCTLPSKKEVERSRRERRQANLLKGKQLLREGKVSEARECFTRSINITHAMAHKVIKAARSQGVDCLVAPYEADAQLAYLNKAGIVQAIITEDSALLAFGCKKVILKMDQFGNGLEIDQARLGMCRQLGDVFTEEKFRYMCILSGCDYLSSLRGIGLAKACKVLRLANNPDIVKVIKKIGHYLKMNITVPEDYINGFIRANNTFLYQLVFDPIKRKLIPLNAYEDDVDPETLSYAGQYVDDSIALQIALGNKDINTFEQIDDYNPDTAMPAHSRSHSWDDKTCQKSANVSSIWHRNYSPRPESGTVSDAPQLKENPSTVGVERVISTKGLNLPRKSSIVKRPRSAELSEDDLLSQYSLSFTKKTKKNSSEGNKSLSFSEVFVPDLVNGPTNKKSVSTPPRTRNKFATFLQRKNEESGAVVVPGTRSRAACSSDSTDCVSNKVSIQPLDETAVTDKENNLHESEYGDQEGKRLVDTDVARNSSDDIPNNHIPGDHIPDKATVFTDEESYSFESSKFTRTISPPTLGTLRSCFSWSGGLGDFSRTPSPSPSTALQQFRRKSDSPTSLPENNMSDVSQLKSEESSDDESHPLREEACSSQSQESGEFSLQSSNASKLSQCSSKDSDSEESDCNIKLLDSQSDQTSKLRLSHFSKKDTPLRNKVPGLYKSSSADSLSTTKIKPLGPARASGLSKKPASIQKRKHHNAENKPGLQIKLNELWKNFGFKKDSEKLPPCKKPLSPVRDNIQLTPEAEEDIFNKPECGRVQRAIFQ
notes: EXO1, human, derivative of pFB-MBP-PP-EXO1(D173A)-1xFLAG; also called EXO1 MIP mutants; MIP mutations; source: Sf9, purified (amylose resin, PreScission cleavage, FLAG M2 resin); not shown: MBP, N-terminal, cleaved; FLAG, C-terminal, kept
